Experimental data: article doi:10.1101/2020.08.09.242891 (bioRxiv, 2020)

Biological target: T1, FLAG-PKD1 (protein kinase D1) (UniProt Q15139 1-912)
T1 sequence (looked up): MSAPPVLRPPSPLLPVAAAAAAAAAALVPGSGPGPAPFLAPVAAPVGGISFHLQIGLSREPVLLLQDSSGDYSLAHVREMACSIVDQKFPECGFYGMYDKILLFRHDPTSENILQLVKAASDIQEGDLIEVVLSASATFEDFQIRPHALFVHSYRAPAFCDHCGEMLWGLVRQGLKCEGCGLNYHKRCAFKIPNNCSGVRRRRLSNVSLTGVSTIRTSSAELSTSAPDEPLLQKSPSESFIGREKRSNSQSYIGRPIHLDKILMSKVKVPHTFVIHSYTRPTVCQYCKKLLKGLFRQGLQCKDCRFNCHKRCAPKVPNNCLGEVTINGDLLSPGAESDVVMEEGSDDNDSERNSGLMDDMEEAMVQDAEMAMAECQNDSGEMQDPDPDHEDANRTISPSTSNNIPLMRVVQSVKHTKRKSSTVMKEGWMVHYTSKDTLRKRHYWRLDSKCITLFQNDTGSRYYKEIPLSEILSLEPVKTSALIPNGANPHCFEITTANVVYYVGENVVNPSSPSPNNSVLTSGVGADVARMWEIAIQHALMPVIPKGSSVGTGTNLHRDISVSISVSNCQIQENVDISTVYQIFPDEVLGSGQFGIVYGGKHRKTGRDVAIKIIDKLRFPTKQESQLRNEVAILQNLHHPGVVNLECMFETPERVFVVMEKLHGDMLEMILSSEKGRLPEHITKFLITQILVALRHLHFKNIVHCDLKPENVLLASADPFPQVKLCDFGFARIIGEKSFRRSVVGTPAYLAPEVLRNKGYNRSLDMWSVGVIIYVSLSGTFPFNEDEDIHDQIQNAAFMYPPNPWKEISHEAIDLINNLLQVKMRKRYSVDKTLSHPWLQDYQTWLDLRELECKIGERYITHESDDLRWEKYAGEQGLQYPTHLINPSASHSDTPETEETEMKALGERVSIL
Assay: pull-down

binding result: binds
B1: GST-CBX8 (natural protein, UniProt Q9HC52 1-389, looked up)
chain: MELSAVGERVFAAEALLKRRIRKGRMEYLVKWKGWSQKYSTWEPEENILDARLLAAFEEREREMELYGPKKRGPKPKTFLLKAQAKAKAKTYEFRSDSARGIRIPYPGRSPQDLASTSRAREGLRNMGLSPPASSTSTSSTCRAEAPRDRDRDRDRDRERDRERERERERERERERERERGTSRVDDKPSSPGDSSKKRGPKPRKELPDPSQRPLGEPSAGLGEYLKGRKLDDTPSGAGKFPAGHSVIQLARRQDSDLVQCGVTSPSSAEATGKLAVDTFPARVIKHRAAFLEAKGQGALDPNGTRVRHGSGPPSSGGGLYRDMGAQGGRPSLIARIPVARILGDPEEESWSPSLTNLEKVVVTDVTSNFLTVTIKESNTDQGFFKEKR
